Data published in US20250313621A1 (NXERA PHARMA UK, published 2025).
Where a chain is given by its changes, count along the chain named.

Legend:
[1] = molecular target: T1, Wildtype human PAR2 expressed on cells (human, UniProt P55085 37-397); experiment: cell-based or functional assay
T1 sequence: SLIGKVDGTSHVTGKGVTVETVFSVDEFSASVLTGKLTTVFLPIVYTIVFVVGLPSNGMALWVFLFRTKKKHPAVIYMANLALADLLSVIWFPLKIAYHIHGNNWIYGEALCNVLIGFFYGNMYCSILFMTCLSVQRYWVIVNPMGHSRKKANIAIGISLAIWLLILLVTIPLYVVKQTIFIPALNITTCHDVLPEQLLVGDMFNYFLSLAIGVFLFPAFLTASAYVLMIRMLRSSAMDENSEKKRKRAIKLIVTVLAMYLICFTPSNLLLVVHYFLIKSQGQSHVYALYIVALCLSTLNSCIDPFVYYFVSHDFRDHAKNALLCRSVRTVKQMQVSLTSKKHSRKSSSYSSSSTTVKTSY

[2] = molecular target: T1, Wildtype human PAR2 expressed on cells; experiment: cell-based or functional assay; remark: listed apart in the source
[3] = molecular target: T2, PAR2-3: P157: 1-377, glycosylated, pBacMamHisStrepII, full length (human, UniProt P55085 26-377); experiment: SPR Biacore T200; IgG captured on anti-human IgG, 250 nM PAR2 analyte; 1:1 model
T2 construct: detergent-solubilised analyte in SPR, or on infected cells in flow cytometry; also called FL-N PAR2 StaR; FL-N StaR; not shown: C-terminal StrepII and deca-histidine tags
T2 sequence: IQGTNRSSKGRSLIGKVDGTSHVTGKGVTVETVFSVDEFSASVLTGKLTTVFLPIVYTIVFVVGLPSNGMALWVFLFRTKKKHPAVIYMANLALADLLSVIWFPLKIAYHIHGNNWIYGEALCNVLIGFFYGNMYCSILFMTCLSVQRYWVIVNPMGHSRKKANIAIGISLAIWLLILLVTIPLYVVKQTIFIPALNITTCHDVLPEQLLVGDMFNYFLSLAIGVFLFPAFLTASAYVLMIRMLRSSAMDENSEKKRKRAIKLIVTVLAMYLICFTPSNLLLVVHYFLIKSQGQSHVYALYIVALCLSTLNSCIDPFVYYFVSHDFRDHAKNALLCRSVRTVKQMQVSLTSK
Experimental: The assay of PAR2 interaction with anti-PAR2 antibodies was carried out using a Biacore T200 instrument (GE Healthcare). Anti-human IgG antibody (Human Antibody Capture Kit, GE Healthcare) was immobilised by amine coupling on a sensor chip CM3 (GE Healthcare) to a surface density of 3500 to 4500 resonance units (RU). Immobilisation was carried out at 25° C. in HBS-EP+ buffer (GE Healthcare). The buffer was then changed to 50 mM HEPES, pH 7.5, 150 mM NaCl, 0.02% LMNG, 0.002% CHS. Each cycle of the PAR2-antibody interaction assay consisted of antibody capture (100 nM antibody injected for 2 min at a flow rate of 5 μL/min), PAR2 injection (blank or 250 nM, with contact and dissociation times of 2 and 3 minutes, respectively, at a flow rate of 20 μl/minute), and chip surface regeneration (30 seconds at 20 μl/minute) using the regeneration solution from Human Antibody Capture Kit (GE Healthcare). […] Measurements between each experimental data set were within the acceptable margins for this methodology.
The antibodies were captured on anti-human IgG chip surface followed by injection of 250 nM PAR2. The data were fitted to 1:1 interaction model.

[4] = molecular target: T2, PAR2-3: P157: 1-377, glycosylated, …; experiment: SPR Biacore; IgG captured on anti-human IgG, 100 nM PAR2 analyte; 1:1 model
Experimental: The antibodies were captured on anti-human IgG chip surface followed by injection of 100 nM PAR2. The data were fitted to 1:1 interaction model except for clone ‘Y021160’ in which case heterogeneous ligand model was used and component with slow dissociation was used for comparison.
For three purified IgG1f_AEASS clones Y021171, Y022054 and Y022063 affinities to human PAR2-3 variant (P157: 1-377, glycosylated, pBacMamHisStrepII, full length) were determined by SPR immobilizing the IgG and probing with detergent (LMNG/CHS) solubilized FL-N PAR2 StaR. Affinities were 22 nM and 20 nM for Y022063 and Y021171, respectively.

[5] = molecular target: T3, Human PAR2 StaR incorporated into nanodiscs (construct not stated) (human, UniProt P55085 37-377, limits assumed); experiment: SPR Biacore; human PAR2 StaR incorporated into nanodiscs
T3 construct: also called nanodisc-embedded StaR
T3 sequence: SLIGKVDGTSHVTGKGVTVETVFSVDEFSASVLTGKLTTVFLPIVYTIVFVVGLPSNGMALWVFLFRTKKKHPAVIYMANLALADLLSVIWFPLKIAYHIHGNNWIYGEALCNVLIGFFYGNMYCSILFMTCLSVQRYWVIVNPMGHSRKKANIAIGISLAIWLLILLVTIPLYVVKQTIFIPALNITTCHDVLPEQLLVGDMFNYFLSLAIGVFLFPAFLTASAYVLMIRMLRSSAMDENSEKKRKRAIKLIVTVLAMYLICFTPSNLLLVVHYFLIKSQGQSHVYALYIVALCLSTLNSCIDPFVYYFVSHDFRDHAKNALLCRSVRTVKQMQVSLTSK

[6] = molecular target: T1, Wildtype human PAR2 expressed on cells; experiment: cell-based or functional assay; remark: listed apart in the source
[7] = molecular target: T4, Mouse PAR2 on Flp-In CHO cells (mouse, UniProt P55086 39-399); experiment: cell binding, flow cytometry/IntelliCyt
T4 construct: whole, on cells
T4 sequence (looked up): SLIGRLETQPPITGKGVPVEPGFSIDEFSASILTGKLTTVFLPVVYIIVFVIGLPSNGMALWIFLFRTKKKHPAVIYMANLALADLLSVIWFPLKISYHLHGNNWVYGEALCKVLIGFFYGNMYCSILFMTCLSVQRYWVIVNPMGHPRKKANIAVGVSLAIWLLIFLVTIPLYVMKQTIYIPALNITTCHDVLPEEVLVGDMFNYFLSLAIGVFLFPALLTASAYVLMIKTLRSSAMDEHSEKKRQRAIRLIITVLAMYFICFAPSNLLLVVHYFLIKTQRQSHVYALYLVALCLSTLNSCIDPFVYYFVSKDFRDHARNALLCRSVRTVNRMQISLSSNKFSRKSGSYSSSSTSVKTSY

[8] = molecular target: T5, Cynomolgus PAR2 on BacMam-infected HEK293 cells (cynomolgus); experiment: flow cytometry on HEK293F-cynoPAR2 (3.0E+06 cells/mL, w/ NaN3), overnight at about 5 C, S/BG [continued]
T5 construct: whole, on cells; also called cyno PAR-2; Cyno PAR2

[9] = molecular target: T1, Wildtype human PAR2 expressed on cells; experiment: flow cytometry on HEK293F-humanPAR2 (3.0E+06 cells/mL), S/BG [continued]

B1: Y021171 (antibody, V domains shown)
VH: EVQLVESGGGLVKPGGSLRLSCAASGFTFSSYSINWVRQAPGKGLEWVSSISSSSSYTYYAESVKGRFTISRDNAKNSLYLQMNSLRAEDTAVYYCARAASGFAIFDYWGQGTLVTVSS
VL: DIQMTQSPSSVSASVGDRVTITCRASQGISSWLAWYQQKPGKAPKLLIYAASSLQSGVPSRFSGSGSGTDFTLTISSLQPEDFATYYCQQTHYVPLTFGQGTKVEIKR
% Max Inhibition, Bovine Trypsin challenge, IP-One [1]: 19%
% Max Inhibition, AP challenge, IP-One [2]: 163%
Kd [3]: 20 nM
koff [3]: 0.011 s⁻¹
kon [3]: 530000 M⁻¹ s⁻¹
Kd [4]: 70 nM
koff [4]: 0.029 s⁻¹
kon [4]: 410000 M⁻¹ s⁻¹
Kd [5]: 31 nM
koff [5]: 0.037 s⁻¹
kon [5]: 1.2e+06 M⁻¹ s⁻¹
% Max Inhibition AP, IP-One [6]: 32%
binding result [7]: no binding

B2: Fab Y022870 (Fab, V domains shown)
VH: EVQLLESGGGLVQPGGSLRLSCAASGFSFSRYAITWVRQAPGKGLEWVSTISALGLETYYAESVRGRFTISRDNSKNTLYLQMNSLRAEDTAVYYCARGFHYTHSGKRYYYPFDIWGQGTLVTVSS
VL: QSALTQPASVSGSPGQSITISCTGTSSDVGSYNLVSWYQQHPGKAPKLMIYEGSKRPSGVSNRFSGSKSGNTASLTISGLQAEDEADYYCSQYATFIAFAVFGGGTKLTVLG
EC50 (read off the curve) [8]: ~2 nM

B3: Fab Y022883 (Fab, V domains shown)
VH: B2 VH with S30T, T35S, T50V, A53G, L54H, L56S, T58A, Y59N, R65K
VL: B2 VL
EC50 (read off the curve) [8]: ~4 nM

B4: Fab Y022877 (Fab, V domains shown)
VH: B2 VH with S28T, I34M, A53G, L56Q, T58A, E62G, R65K
VL: B2 VL
EC50 (read off the curve) [9]: ~10 nM
